Here are results for one molecule from patent US20240425606A1, “ANTI-IL-11RA ANTIBODIES” (Lassen Therapeutics 1, Inc., priority 2021, published 2024).

The term IC50 denotes the concentration that gives 50% inhibition.

This assay addresses T1, human IL-11Rα (human, UniProt Q14626 23-363, limits assumed).
T1 construct: Protein coated on ELISA plates and used in solution for BLI; also called hIL-11Rα; hIL-11R
T1 sequence: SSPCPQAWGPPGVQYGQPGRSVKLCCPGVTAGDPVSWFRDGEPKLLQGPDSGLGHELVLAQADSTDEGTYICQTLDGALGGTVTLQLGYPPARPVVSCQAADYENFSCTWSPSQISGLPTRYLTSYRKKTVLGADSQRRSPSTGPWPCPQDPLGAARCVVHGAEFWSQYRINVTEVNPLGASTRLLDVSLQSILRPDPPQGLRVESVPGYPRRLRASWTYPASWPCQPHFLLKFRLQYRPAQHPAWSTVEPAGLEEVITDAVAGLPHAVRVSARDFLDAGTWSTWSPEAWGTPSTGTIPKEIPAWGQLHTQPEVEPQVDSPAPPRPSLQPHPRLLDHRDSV
The assay can be described thus: competitive ELISA, IL-11R coated on plate; competitor: biotinylated 8E2 (0.1 µg/mL); competing against 8E2-bio. How it is done: Relative binding activity of the antibodies was tested by competitive ELISA using biotinylated mAbs 8E2 or TS7. Antibodies 8E2 and TS7 were biotinylated using sulfo-NHS Biotin (Thermo Fisher) per the manufacturer's instructions. IL-11R was coated onto ELISA plates (Nunc, MaxiSorp) at 2 μg/mL in PBS, and plates were blocked with 2% BSA in PBS. After washing the plate with water, antibodies to be tested were titrated across the plate in a final volume of 90 μL followed by addition of 10 μL of biotinylated 8E2 or biotinylated TS7, as indicated in Table E1 (0.1 μg/mL final concentration) to each well. Plates were incubated for 2 hours on a plate-shaker, followed by washing and addition of 100 μL/well of streptavidin-HRP (Jackson ImmunoResearch, 1/1000 dilution). After a further 1 hour incubation, plates were washed, developed with Ultra-TMB HRP substrate (Thermo Fisher), and stopped by the addition of 50 μL/well of 2 M sulfuric acid. Plates were read at 450 nm on an iD5 plate reader (Molecular Devices).

B1: mAb1 (antibody, V domains shown)
VH: EVQLLESGGGLVQPGGSLRLSCAASGFTFSWYSMTWVRQAPGKGLEWVSSIVPSGGHTQYADSVKGRFTISRDNSKNTLYLQMNSLRAEDTAVYYCAKGPDWGSFDLWGRGTLVTVSS
VL: DIQMTQSPSSLSASVGDRVTITCQASQDINNYLNWYQQKPGKAPKLLIYDASNLQTGVPSRFSGSGSGTDFTFTISSLQPEDIATYYCQQHESQSPTFGPGTKVDIK
notes: Expressed as human IgG4 (S228P EU)
For the molecule B1, the IC50 is greater than 10 µg/mL.
